According to patent publication US20050118611:

Tests used:
[1] = biological target: NF-κB p65 (RelA) homodimer (UniProt Q04206); conditions: 1:1 stoichiometry; method not stated; cited from earlier work
[2] = biological target: NF-κB p50 homodimer (UniProt P19838); conditions: SELDI also detects p50 on IgκB surface; lost on stringent washing unlike XBY-6
Sequence of NF-κB p50 homodimer (P19838 1-433): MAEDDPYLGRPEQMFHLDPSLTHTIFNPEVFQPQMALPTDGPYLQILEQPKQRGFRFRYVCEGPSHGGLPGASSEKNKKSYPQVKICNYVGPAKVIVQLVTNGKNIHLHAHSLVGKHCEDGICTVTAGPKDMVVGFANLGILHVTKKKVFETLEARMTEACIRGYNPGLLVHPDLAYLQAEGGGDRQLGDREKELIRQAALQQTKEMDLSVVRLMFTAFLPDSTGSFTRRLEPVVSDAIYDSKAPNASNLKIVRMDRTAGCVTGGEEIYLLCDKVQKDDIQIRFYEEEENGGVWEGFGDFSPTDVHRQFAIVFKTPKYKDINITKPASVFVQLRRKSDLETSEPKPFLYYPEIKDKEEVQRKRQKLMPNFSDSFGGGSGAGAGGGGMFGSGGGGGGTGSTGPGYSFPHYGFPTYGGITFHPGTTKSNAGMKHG

Sequence of NF-κB p65 (RelA) homodimer (Q04206 whole entry): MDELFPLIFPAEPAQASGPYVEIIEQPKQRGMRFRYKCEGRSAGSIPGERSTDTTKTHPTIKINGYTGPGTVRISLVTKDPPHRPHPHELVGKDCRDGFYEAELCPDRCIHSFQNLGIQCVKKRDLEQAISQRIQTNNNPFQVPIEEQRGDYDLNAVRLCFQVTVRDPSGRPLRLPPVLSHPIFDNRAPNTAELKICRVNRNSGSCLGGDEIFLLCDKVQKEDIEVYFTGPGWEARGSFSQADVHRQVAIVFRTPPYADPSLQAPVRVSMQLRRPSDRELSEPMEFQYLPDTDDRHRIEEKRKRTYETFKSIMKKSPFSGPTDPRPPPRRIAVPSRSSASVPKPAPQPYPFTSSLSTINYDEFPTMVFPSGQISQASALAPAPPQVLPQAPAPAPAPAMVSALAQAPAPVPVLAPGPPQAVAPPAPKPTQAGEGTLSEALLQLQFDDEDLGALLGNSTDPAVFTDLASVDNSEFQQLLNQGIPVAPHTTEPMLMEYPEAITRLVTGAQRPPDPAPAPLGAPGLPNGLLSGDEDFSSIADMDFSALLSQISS

For IgκB 22-mer duplex, the Kd [1] is listed as 4 nM and the Kd [2] is listed as 4 nM.
